{"source": "patent US20110111461A1", "about": "(Hoffmann-La Roche, published 2011)"}
{"target": "T1, human epidermal growth factor receptor (EGFR) (human, UniProt P00533 25-1210)", "T1 construct": "whole, on cells; also called HER-1; ErbB1", "assay": "flow cytometry on A431 cells; light chain variants paired with I-HHD", "description": "(§1) The purified, monomeric humanized antibody variants were tested for binding to human epidermal growth factor receptor (EGFR, also referred to in the literature as HER-1 or ErbB1) on the A431 human epidermal cell line, using a flow cytometry-based assay. 200,000 cells (e.g., from human A431 cell line) in 180 μl FACS buffer (PBS containing 2% FCS and 5 mM EDTA) were transferred to 5 ml polystyrene tubes and 20 μl 10 fold concentrated anti-EGFR antibody (primary antibody) samples (1-5000 ng/ml final concentration) or PBS only were added. After gently mixing the samples, the tubes were incubated at 4° C. for 30 min in the dark. Subsequently, samples were washed twice with FACS buffer and pelleted at 300×g for 3 min. Supernatant was aspirated off and cells were taken up in 50 μl FACS buffer and 2 μl secondary antibody (anti-Fc-specific F(ab′)2-FITC fragments (Jackson Immuno Research Laboratories, USA)) was added and the tubes were incubated at 4° C. for 30 min. Samples were washed twice with FACS buffer and taken up in 500 μl of FACS buffer for analysis by Flow Cytometry. Binding was determined by plotting the geometric mean fluorescence against the antibody concentrations.\nEach of the I-KC variant constructs (I-KCl to I-KC9) was paired with a heavy chain variable region comprising construct I-HHD (SEQ ID NO:16 and SEQ ID NO:15) and a binding assay performed according to the methods described in the previous examples. Constructs I-KCl to I-KC9 were compared to the I-KC construct (SEQ ID NO:46 and SEQ ID NO:45) for binding affinity to EGFR in A431 target cells (FIG. 29). […] Therefore, when paired with a chimeric (e.g., humanized) heavy chain construct specific for EGFR, the light chain can be entirely human (e.g., from a human light chain V gene sequence) and still retain specific binding for EGFR. In particular, CDR2 and CDR3 can be entirely in human germline form."}
{"binder": "humanized ICR62 antibody I-HHD / I-KC1 (antibody, human IgG1, V domains shown, also called I-KCl) VH: QVQLVQSGAEVKKPGSSVKVSCKASGFTFTDYKIHWVRQAPGQGLEWMGYFNPNSGYSTYAQKFQGRVTITADKSTSTAYMELSSLRSEDTAVYYCARLSPGGYYVMDAWGQGTTVTVSS VL: DIQMTQSPSSLSASVGDRVTITCRASQGIRNYLNWYQQKPGKAPKRLIYNTNNLQTGVPSRFSGSGSGTEFTLTISSLQPEDFATYYCLQHNSFPTFGQGTKLEIKR", "binding result": "binds"}
{"binder": "humanized ICR62 antibody I-HHD / I-KC2 (antibody, human IgG1, V domains shown) VH: QVQLVQSGAEVKKPGSSVKVSCKASGFTFTDYKIHWVRQAPGQGLEWMGYFNPNSGYSTYAQKFQGRVTITADKSTSTAYMELSSLRSEDTAVYYCARLSPGGYYVMDAWGQGTTVTVSS VL: DIQMTQSPSSLSASVGDRVTITCRASQGINNWLNWYQQKPGKAPKRLIYNTNNLQTGVPSRFSGSGSGTEFTLTISSLQPEDFATYYCLQHNSFPTFGQGTKLEIKR", "binding result": "binds"}
{"target": "T1, human epidermal growth factor receptor …", "assay": "flow cytometry on A431 cells", "description": "as §1\nOnly the I-HHA has strongly diminished binding activity (see FIG. 2). […] In this experiment, either the light chain, the heavy chain or both chains simultaneously of the ch-ICR62 were replaced by the above mentioned humanized constructs.", "units": {"EC50": "µg/mL", "EC50 fold increase relative to ch-ICR62, I-HLA1 and I-HLA2": "fold", "EC50 fold decrease relative to ch-ICR62": "fold"}}
{"binder": "humanized ICR62 antibody I-HHB / I-KC (not glycoengineered) (antibody, human IgG1, V domains shown, also called I-HHB/KC) VH: QVQLVQSGAEVKKPGSSVKVSCKGSGFTFTDYKIHWVRQAPGQGLEWMGYFNPNSGYSTYAQKFQGRVTITADKSTSTAYMELSSLRSEDTAVYYCARLSPGGYYVMDAWGQGTTVTVSS VL: DIQMTQSPSSLSASVGDRVTITCRASQGINNYLNWYQQKPGKAPKRLIYNTNNLQTGVPSRFSGSGSGTEFTLTISSLQPEDFATYYCLQHNSFPTFGQGTKLEIKR", "binding result": "binds"}
{"binder": "I-HHC heavy chain combined with the chimeric ICR62 light chain (rVL) (antibody, human IgG1, V domains shown, also called I-HHC / rVL) VH: QVQLVQSGAEVKKPGSSVKVSCKGSGFTFTDYKIHWVRQAPGQGLEWMGYFNPNSGYSTYNEKFKSRVTITADKSTSTAYMELSSLRSEDTAVYYCARLSPGGYYVMDAWGQGTTVTVSS VL: DIQMTQSPSFLSASVGDRVTINCKASQNINNYLNWYQQKLGEAPKRLIYNTNNLQTGIPSRFSGSGSGTDYTLTISSLQPEDFATYFCLQHNSFPTFGAGTKLELKR", "binding result": "binds"}
{"binder": "humanized ICR62 antibody I-HLA2 / I-KC (antibody, human IgG1, V domains shown) VH: QVQLVQSGAEVKKPGASVKVSCKASGFTFTDYYMHWVRQAPGQGLEWMGWINPNSGYSTYNEKFQGQVTISADKSISTAYLQWSSLKASDTAMYYCARLSPGGYYVMDAWGQGTTVTVSS VL: DIQMTQSPSSLSASVGDRVTITCRASQGINNYLNWYQQKPGKAPKRLIYNTNNLQTGVPSRFSGSGSGTEFTLTISSLQPEDFATYYCLQHNSFPTFGQGTKLEIKR", "EC50": "~0.3"}
{"binder": "humanized ICR62 antibody I-HLA9 / I-KC (antibody, human IgG1, V domains shown) VH: EVQLVQSGAEVKKPGESLKISCKGSGYSFTDYKIHWVRQAPGQGLEWMGYFNPNSGYSTYAQKFQGRVTITADKSTSTAYMELSSLRSEDTAVYYCARLSPGGYYVMDAWGQGTTVTVSS VL: DIQMTQSPSSLSASVGDRVTITCRASQGINNYLNWYQQKPGKAPKRLIYNTNNLQTGVPSRFSGSGSGTEFTLTISSLQPEDFATYYCLQHNSFPTFGQGTKLEIKR", "binding result": "binds"}
{"binder": "humanized ICR62 antibody I-HLA1 / I-KC (antibody, human IgG1, V domains shown) VH: QVQLVQSGAEVKKPGASVKVSCKASGFTFTDYYMHWVRQAPGQGLEWMGWINPNSGYSTYSPSFQGQVTISADKSISTAYLQWSSLKASDTAMYYCARLSPGGYYVMDAWGQGTTVTVSS VL: DIQMTQSPSSLSASVGDRVTITCRASQGINNYLNWYQQKPGKAPKRLIYNTNNLQTGVPSRFSGSGSGTEFTLTISSLQPEDFATYYCLQHNSFPTFGQGTKLEIKR", "EC50": "~0.3"}
{"binder": "humanized ICR62 antibody I-HLA3 / I-KC (antibody, human IgG1, V domains shown) VH: QVQLVQSGAEVKKPGASVKVSCKASGYTFTDYYMHWVRQAPGQGLEWMGWINPNSGYSTYSPSFQGQVTISADKSISTAYLQWSSLKASDTAMYYCARLSPGGYYVMDAWGQGTTVTVSS VL: DIQMTQSPSSLSASVGDRVTITCRASQGINNYLNWYQQKPGKAPKRLIYNTNNLQTGVPSRFSGSGSGTEFTLTISSLQPEDFATYYCLQHNSFPTFGQGTKLEIKR", "EC50 fold increase relative to ch-ICR62, I-HLA1 and I-HLA2": 2}
{"binder": "humanized ICR62 antibody I-HLA7 / I-KC (antibody, human IgG1, V domains shown) VH: QMQLVQSGPEVKKPGTSVKVSCKASGFTFTDYKIHWVRQARGQRLEWIGWINPNSGYSTYNEKFQGQVTISADKSISTAYLQWSSLKASDTAMYYCARLSPGGYYVMDAWGQGTTVTVSS VL: DIQMTQSPSSLSASVGDRVTITCRASQGINNYLNWYQQKPGKAPKRLIYNTNNLQTGVPSRFSGSGSGTEFTLTISSLQPEDFATYYCLQHNSFPTFGQGTKLEIKR", "binding result": "binds"}
{"binder": "humanized ICR62 antibody I-HLA5 / I-KC (antibody, human IgG1, V domains shown) VH: QMQLVQSGPEVKKPGTSVKVSCKASGFTFTDYYMHWVRQAPGQGLEWMGWINPNSGYSTYSPSFQGQVTISADKSISTAYLQWSSLKASDTAMYYCARLSPGGYYVMDAWGQGTTVTVSS VL: DIQMTQSPSSLSASVGDRVTITCRASQGINNYLNWYQQKPGKAPKRLIYNTNNLQTGVPSRFSGSGSGTEFTLTISSLQPEDFATYYCLQHNSFPTFGQGTKLEIKR", "EC50 fold increase relative to ch-ICR62, I-HLA1 and I-HLA2": 2}
{"binder": "humanized ICR62 antibody I-HLA / I-KB (antibody, human IgG1, V domains shown) VH: QVQLVQSGAEVKKPGASVKVSCKASGFTFTDYYMHWVRQAPGQGLEWMGWINPNSGYSTYAQKFQGRVTMTADTSISTAYMELSRLRSDDTAVYYCARLSPGGYYVMDAWGQGTTVTVSS VL: DIQMTQSPSSLSASVGDRVTITCKASQNINNYLNWYQQKPGKAPKRLIYNTNNLQTGVPSRFSGSGSGTEYTLTISSLQPEDFATYYCLQHNSFPTFGQGTKLEIKR", "binding result": "binds"}
{"binder": "humanized ICR62 antibody I-HLA / I-KA (antibody, human IgG1, V domains shown) VH: QVQLVQSGAEVKKPGASVKVSCKASGFTFTDYYMHWVRQAPGQGLEWMGWINPNSGYSTYAQKFQGRVTMTADTSISTAYMELSRLRSDDTAVYYCARLSPGGYYVMDAWGQGTTVTVSS VL: DIQMTQSPSSLSASVGDRVTITCRASQGINNYLNWYQQKPGKAPKRLIYNTNNLQTGVPSRFSGSGSGTEYTLTISSLQPEDFATYYCLQHNSFPTFGQGTKLEIKR", "binding result": "binds"}
{"binder": "humanized ICR62 antibody I-HHG / I-KC (antibody, human IgG1, V domains shown) VH: QVQLVQSGAEVKKPGSSVKVSCKGSGFTFTDYKIHWVRQAPGQGLEWMGYFNPNSGYATYAQKFQGRVTITADKSTSTAYMELSSLRSEDTAVYYCARLSPGGYYVMDAWGQGTTVTVSS VL: DIQMTQSPSSLSASVGDRVTITCRASQGINNYLNWYQQKPGKAPKRLIYNTNNLQTGVPSRFSGSGSGTEFTLTISSLQPEDFATYYCLQHNSFPTFGQGTKLEIKR", "binding result": "binds"}
{"binder": "humanized ICR62 antibody I-HLA6 / I-KC (antibody, human IgG1, V domains shown) VH: QMQLVQSGPEVKKPGTSVKVSCKASGFTFTDYYMHWVRQAPGQGLEWMGWINPNSGYSTYNEKFQGQVTISADKSISTAYLQWSSLKASDTAMYYCARLSPGGYYVMDAWGQGTTVTVSS VL: DIQMTQSPSSLSASVGDRVTITCRASQGINNYLNWYQQKPGKAPKRLIYNTNNLQTGVPSRFSGSGSGTEFTLTISSLQPEDFATYYCLQHNSFPTFGQGTKLEIKR", "EC50 fold increase relative to ch-ICR62, I-HLA1 and I-HLA2": 2}
{"binder": "humanized ICR62 antibody I-HLA4 / I-KC (antibody, human IgG1, V domains shown) VH: QVQLVQSGAEVKKPGASVKVSCKASGYTFTDYYMHWVRQAPGQGLEWMGWINPNSGYSTYNEKFQGQVTISADKSISTAYLQWSSLKASDTAMYYCARLSPGGYYVMDAWGQGTTVTVSS VL: DIQMTQSPSSLSASVGDRVTITCRASQGINNYLNWYQQKPGKAPKRLIYNTNNLQTGVPSRFSGSGSGTEFTLTISSLQPEDFATYYCLQHNSFPTFGQGTKLEIKR", "EC50 fold increase relative to ch-ICR62, I-HLA1 and I-HLA2": 2}
{"binder": "humanized ICR62 antibody I-HHF / I-KC (antibody, human IgG1, V domains shown) VH: QVQLVQSGAEVKKPGSSVKVSCKGSGFTFTDYKIHWVRQAPGQGLEWMGYFNPNSGYSNYAQKFQGRVTITADKSTSTAYMELSSLRSEDTAVYYCARLSPGGYYVMDAWGQGTTVTVSS VL: DIQMTQSPSSLSASVGDRVTITCRASQGINNYLNWYQQKPGKAPKRLIYNTNNLQTGVPSRFSGSGSGTEFTLTISSLQPEDFATYYCLQHNSFPTFGQGTKLEIKR", "binding result": "binds"}
{"binder": "humanized ICR62 antibody I-HLA8 / I-KC (antibody, human IgG1, V domains shown) VH: QMQLVQSGPEVKKPGTSVKVSCKASGFTFTDYKIHWVRQAPGQGLEWMGYFNPNSGYSTYAQKFQGRVTITADKSTSTAYMELSSLRSEDTAVYYCARLSPGGYYVMDAWGQGTTVTVSS VL: DIQMTQSPSSLSASVGDRVTITCRASQGINNYLNWYQQKPGKAPKRLIYNTNNLQTGVPSRFSGSGSGTEFTLTISSLQPEDFATYYCLQHNSFPTFGQGTKLEIKR", "EC50 fold decrease relative to ch-ICR62": 2}
{"binder": "humanized ICR62 antibody I-HHC / I-KB (antibody, human IgG1, V domains shown) VH: QVQLVQSGAEVKKPGSSVKVSCKGSGFTFTDYKIHWVRQAPGQGLEWMGYFNPNSGYSTYNEKFKSRVTITADKSTSTAYMELSSLRSEDTAVYYCARLSPGGYYVMDAWGQGTTVTVSS VL: DIQMTQSPSSLSASVGDRVTITCKASQNINNYLNWYQQKPGKAPKRLIYNTNNLQTGVPSRFSGSGSGTEYTLTISSLQPEDFATYYCLQHNSFPTFGQGTKLEIKR", "binding result": "binds"}
